The values that follow come from publication PMC2386557, “Varicellovirus UL49.5 Proteins Differentially Affect the Function of the Transporter Associated with Antigen Processing, TAP” (PLoS Pathogens, 2008).

Holding throughout (settings): one partner purified
Test [1] has as its target T1, TAP complex of MJS TAP1-GFP cells (TAP1-GFP with TAP2) ( | human (endogenous in MJS), UniProt Q03518;Q03519).
T1 construct: also called GFP-tagged TAP
T1 sequence 1: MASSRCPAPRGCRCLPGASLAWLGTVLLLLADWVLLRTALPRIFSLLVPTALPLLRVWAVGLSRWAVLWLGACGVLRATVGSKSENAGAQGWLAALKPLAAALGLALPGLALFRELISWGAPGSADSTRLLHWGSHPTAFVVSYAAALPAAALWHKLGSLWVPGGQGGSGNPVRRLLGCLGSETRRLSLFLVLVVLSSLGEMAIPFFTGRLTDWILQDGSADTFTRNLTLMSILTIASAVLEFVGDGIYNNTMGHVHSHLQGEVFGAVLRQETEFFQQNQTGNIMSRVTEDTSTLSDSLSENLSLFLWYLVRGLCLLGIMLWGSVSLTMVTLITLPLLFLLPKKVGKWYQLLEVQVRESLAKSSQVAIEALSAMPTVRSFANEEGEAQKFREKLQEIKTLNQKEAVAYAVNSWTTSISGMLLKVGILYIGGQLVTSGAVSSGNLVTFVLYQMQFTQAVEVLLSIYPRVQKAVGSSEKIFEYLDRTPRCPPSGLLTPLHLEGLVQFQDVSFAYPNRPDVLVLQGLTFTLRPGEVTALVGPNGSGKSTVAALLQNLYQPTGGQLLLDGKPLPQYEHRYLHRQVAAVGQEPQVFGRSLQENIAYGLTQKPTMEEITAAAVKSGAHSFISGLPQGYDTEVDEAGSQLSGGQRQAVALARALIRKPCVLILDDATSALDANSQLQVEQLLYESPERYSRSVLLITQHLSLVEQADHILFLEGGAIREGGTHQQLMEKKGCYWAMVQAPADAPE
T1 sequence 2: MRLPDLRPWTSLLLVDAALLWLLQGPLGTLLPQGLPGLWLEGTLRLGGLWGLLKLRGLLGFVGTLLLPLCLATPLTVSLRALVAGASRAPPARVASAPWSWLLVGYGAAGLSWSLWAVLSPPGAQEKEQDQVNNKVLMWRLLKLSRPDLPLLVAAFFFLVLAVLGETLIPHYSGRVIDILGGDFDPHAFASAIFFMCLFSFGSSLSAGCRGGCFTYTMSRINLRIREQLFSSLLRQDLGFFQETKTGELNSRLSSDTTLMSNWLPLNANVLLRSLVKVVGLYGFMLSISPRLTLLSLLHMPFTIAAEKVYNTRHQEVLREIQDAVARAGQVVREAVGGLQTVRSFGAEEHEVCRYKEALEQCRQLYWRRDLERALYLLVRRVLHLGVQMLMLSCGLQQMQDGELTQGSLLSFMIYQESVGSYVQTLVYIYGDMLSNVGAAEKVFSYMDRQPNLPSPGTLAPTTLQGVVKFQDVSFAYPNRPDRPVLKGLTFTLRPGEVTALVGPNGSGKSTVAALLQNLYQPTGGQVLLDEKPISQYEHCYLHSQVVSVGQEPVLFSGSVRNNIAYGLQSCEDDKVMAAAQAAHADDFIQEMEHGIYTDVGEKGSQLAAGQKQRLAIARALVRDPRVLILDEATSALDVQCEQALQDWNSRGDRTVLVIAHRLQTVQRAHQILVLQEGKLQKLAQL
Briefly: radioligand binding.

For test [2], the target named is T1, TAP complex of MJS TAP1-GFP cells …. Kind of test: radioligand binding; microsomes of control MJS TAP1-GFP cells incubated on ice with increasing concentrations of RR[125I]YQKSTEL in AP buffer (5 mM MgCl2 in PBS, pH 7.0); corrected for the signal with 200-fold excess of ICP47; triplicate.
Test [3] shares this target. Briefly: radioligand binding; as a2, but microsomes of MJS TAP1-GFP cells that express EHV-1 UL49.5.

Where no end group is shown, it is not given here. The star is where a group is joined. 125I = [125I]*

B1: radiolabeled reporter peptide RR[125I]YQKSTEL (peptide)
peptide: RRY(125I)QKSTEL
notes: also called ^125I-labeled reporter peptide; radiolabeled peptide
As to B1, the Kd in test [1] turned out to be 351 ± 42 nM; in test [2], 277 ± 58 nM; in test [3], 236 ± 71 nM.

For orientation: Kd means the free concentration of one partner at which half of the binding sites on the other are occupied at equilibrium, for simple one-to-one binding.
